We go through six molecules from patent publication US20200255519A1 (University of California, published 2020).

For assay [1], the target named is T1, BCL-xL/Bak-peptide complex: biotinylated BCL-xL (residues 2-215) in the presence of 5 µM Bak peptide (human, UniProt Q07817 2-215, biotin on the N-terminal AviTag).
T1 construct: Bak peptide bought from Anaspec (AS-61616); not shown: N-terminal tags (pMCSG7 vector tag used for Ni-NTA, AviTag, TEV cut site)
The assay is described as follows: biolayer interferometry, immobilized BCL-xL, 100 nM Fab with 5 µM Bak peptide. Background: BLI is a label-free optical method that tracks binding on a fibre tip over time.

Assay [2] deals with biotinylated C-terminally truncated BCL-xL (residues 2-215), no ligand (DMSO vehicle) (human) (UniProt Q07817). In words: BLI (Octet), biotinylated BCL-xL on streptavidin sensor, Fab as analyte, no ABT-737.
Sequence of biotinylated C-terminally truncated BCL-xL (residues 2-215), no ligand (DMSO vehicle) (human) (Q07817 2-215): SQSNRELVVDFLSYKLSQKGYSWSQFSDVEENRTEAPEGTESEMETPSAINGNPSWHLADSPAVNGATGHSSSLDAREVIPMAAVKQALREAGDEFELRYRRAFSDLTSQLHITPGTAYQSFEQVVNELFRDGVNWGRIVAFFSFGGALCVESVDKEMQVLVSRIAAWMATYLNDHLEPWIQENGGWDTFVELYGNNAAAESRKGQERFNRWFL
Assay [3] has as its target T2, BCL-xL/ABT-737 complex: biotinylated BCL-xL (residues 2-215) in the presence of 1 µM ABT-737 (human, UniProt Q07817 2-215, biotin on the N-terminal AviTag; small molecule ABT-737 bound non-covalently).
T2 construct: Same protein as m1; not shown: N-terminal tags (pMCSG7 vector tag used for Ni-NTA, AviTag, TEV cut site)
The assay is described as follows: ELISA, biotinylated BCL-xL captured on NeutrAvidin, Fab titrated with 1 µM ABT-737, anti-Fab-HRP detection. Background: ELISA stands for enzyme-linked immunosorbent assay.

Assay [4] addresses T2, BCL-xL/ABT-737 complex: biotinylated …. In words: ELISA, biotinylated BCL-xL captured on NeutrAvidin, Fab titrated with 1 µM ABT-737, anti-Fab-HRP detection [continued].
In assay [5] the target is T3, biotinylated C-terminally truncated BCL-xL (residues 2-215), no ligand (DMSO vehicle) (human, UniProt Q07817 2-215, biotin on the N-terminal AviTag).
T3 construct: also called apo BCL-xL; not shown: N-terminal tags (pMCSG7 vector tag used for Ni-NTA, AviTag, TEV cut site)
T3 sequence (Q07817 2-215): as above
In words: ELISA, biotinylated BCL-xL captured on NeutrAvidin, Fab titrated with 0.05% DMSO (no ABT-737), anti-Fab-HRP detection [continued].

T2 sequence (Q07817 2-215, one chain of several): as the sequence (Q07817 2-215) above
T1 sequence (Q07817 2-215, one chain of several): as the sequence (Q07817 2-215) above

B1: Fab AZ1 (Fab)
heavy: EISEVQLVESGGGLVQPGGSLRLSCAASGFNLSYSSMHWVRQAPGKGLEWVASISPYSSYTSYADSVKGRFTISADTSKNTAYLQMNSLRAEDTAVYYCARGWVGMDYWGQGTLVTVSSASTKGPSVFPLAPSSKSTSGGTAALGCLVKDYFPEPVTVSWNSGALTSGVHTFPAVLQSSGLYSLSSVVTVPSSSLGTQTYICNVNHKPSNTKVDKKVEPKSCDKTHTGGSHHHHHH
light: SDIQMTQSPSSLSASVGDRVTITCRASQSVSSAVAWYQQKPGKAPKLLIYSASSLYSGVPSRFSGSRSGTDFTLTISSLQPEDFATYYCQQYYWGFPSLFTFGQGTKVEIKRTVAAPSVFIFPPSDSQLKSGTASVVCLLNNFYPREAKVQWKVDNALQSGNSQESVTEQDSKDSTYSLSSTLTLSKADYEKHKVYACEVTHQGLSSPVTKSFNRGECGGSDYKDDDDK
notes: Purified Fab from E. coli; The scaffold tags are kept
For the molecule B1, the binding result in assay [1] is “no binding (tested: 100 nM)”. The Kd (as a rule, the constant that tells how readily two partners part at equilibrium) in assay [2] is greater than 5000 nM.

B2: Fab AZ2 (Fab)
heavy: EISEVQLVESGGGLVQPGGSLRLSCAASGFNIYSYYMHWVRQAPGKGLEWVAYISPYYSYTSYADSVKGRFTISADTSKNTAYLQMNSLRAEDTAVYYCARGYPWYGMDYWGQGTLVTVSSASTKGPSVFPLAPSSKSTSGGTAALGCLVKDYFPEPVTVSWNSGALTSGVHTFPAVLQSSGLYSLSSVVTVPSSSLGTQTYICNVNHKPSNTKVDKKVEPKSCDKTHTGGSHHHHHH
light: SDIQMTQSPSSLSASVGDRVTITCRASQSVSSAVAWYQQKPGKAPKLLIYSASSLYSGVPSRFSGSRSGTDFTLTISSLQPEDFATYYCQQVSWAYPYLITFGQGTKVEIKRTVAAPSVFIFPPSDSQLKSGTASVVCLLNNFYPREAKVQWKVDNALQSGNSQESVTEQDSKDSTYSLSSTLTLSKADYEKHKVYACEVTHQGLSSPVTKSFNRGECGGSDYKDDDDK
notes: Purified Fab; graft limits inferred
Take B2: the binding result in assay [1] is listed as “no binding (tested: 100 nM)”. The EC50 (read off the curve) (commonly the concentration that produces a half-maximal response) in assay [3] is roughly 2 nM. This molecule yielded a Kd in assay [2] greater than 5000 nM.

B3: Fab AZ3 (Fab)
heavy: EISEVQLVESGGGLVQPGGSLRLSCAASGFNIYYSYMHWVRQAPGKGLEWVASISPYSSYTSYADSVKGRFTISADTSKNTAYLQMNSLRAEDTAVYYCARYGYSYYYYGALDYWGQGTLVTVSSASTKGPSVFPLAPSSKSTSGGTAALGCLVKDYFPEPVTVSWNSGALTSGVHTFPAVLQSSGLYSLSSVVTVPSSSLGTQTYICNVNHKPSNTKVDKKVEPKSCDKTHTGGSHHHHHH
light: SDIQMTQSPSSLSASVGDRVTITCRASQSVSSAVAWYQQKPGKAPKLLIYSASSLYSGVPSRFSGSRSGTDFTLTISSLQPEDFATYYCQQGWSGPWLITFGQGTKVEIKRTVAAPSVFIFPPSDSQLKSGTASVVCLLNNFYPREAKVQWKVDNALQSGNSQESVTEQDSKDSTYSLSSTLTLSKADYEKHKVYACEVTHQGLSSPVTKSFNRGECGGSDYKDDDDK
notes: as for B2
In the case of B3, in assay [1], the binding result was “no binding (tested: 100 nM)”. Also, the “EC50 (read off the curve)” value in assay [3] is roughly 7 nM. Further, in assay [2], the Kd was greater than 5000 nM.

B4: Fab AZ5 (Fab)
heavy: EISEVQLVESGGGLVQPGGSLRLSCAASGFNLYYYYIHWVRQAPGKGLEWVASIYPSYGSTYYADSVKGRFTISADTSKNTAYLQMNSLRAEDTAVYYCARASVWFGWYVPSAMDYWGQGTLVTVSSASTKGPSVFPLAPSSKSTSGGTAALGCLVKDYFPEPVTVSWNSGALTSGVHTFPAVLQSSGLYSLSSVVTVPSSSLGTQTYICNVNHKPSNTKVDKKVEPKSCDKTHTGGSHHHHHH
light: SDIQMTQSPSSLSASVGDRVTITCRASQSVSSAVAWYQQKPGKAPKLLIYSASSLYSGVPSRFSGSRSGTDFTLTISSLQPEDFATYYCQQWPGWYPITFGQGTKVEIKRTVAAPSVFIFPPSDSQLKSGTASVVCLLNNFYPREAKVQWKVDNALQSGNSQESVTEQDSKDSTYSLSSTLTLSKADYEKHKVYACEVTHQGLSSPVTKSFNRGECGGSDYKDDDDK
notes: as for B2
Take B4: the binding result in assay [4] and in assay [5] was “binds” throughout.

B5: Fab AZ6 (Fab)
heavy: EISEVQLVESGGGLVQPGGSLRLSCAASGFNLSYSYIHWVRQAPGKGLEWVASIYSSSGSTYYADSVKGRFTISADTSKNTAYLQMNSLRAEDTAVYYCARGSHAHGWAWFWYGMDYWGQGTLVTVSSASTKGPSVFPLAPSSKSTSGGTAALGCLVKDYFPEPVTVSWNSGALTSGVHTFPAVLQSSGLYSLSSVVTVPSSSLGTQTYICNVNHKPSNTKVDKKVEPKSCDKTHTGGSHHHHHH
light: SDIQMTQSPSSLSASVGDRVTITCRASQSVSSAVAWYQQKPGKAPKLLIYSASSLYSGVPSRFSGSRSGTDFTLTISSLQPEDFATYYCQQSSYSLITFGQGTKVEIKRTVAAPSVFIFPPSDSQLKSGTASVVCLLNNFYPREAKVQWKVDNALQSGNSQESVTEQDSKDSTYSLSSTLTLSKADYEKHKVYACEVTHQGLSSPVTKSFNRGECGGSDYKDDDDK
notes: as for B2
Turning to B5, the binding result in assay [4] and in assay [5] was “binds” each time.

B6: Fab AZ7 (Fab)
heavy: EISEVQLVESGGGLVQPGGSLRLSCAASGFNLSSYSMHWVRQAPGKGLEWVASIYSYYGSTSYADSVKGRFTISADTSKNTAYLQMNSLRAEDTAVYYCARYSPWVYYPYYGWYSGMDYWGQGTLVTVSSASTKGPSVFPLAPSSKSTSGGTAALGCLVKDYFPEPVTVSWNSGALTSGVHTFPAVLQSSGLYSLSSVVTVPSSSLGTQTYICNVNHKPSNTKVDKKVEPKSCDKTHTGGSHHHHHH
light: SDIQMTQSPSSLSASVGDRVTITCRASQSVSSAVAWYQQKPGKAPKLLIYSASSLYSGVPSRFSGSRSGTDFTLTISSLQPEDFATYYCQQSSYSLITFGQGTKVEIKRTVAAPSVFIFPPSDSQLKSGTASVVCLLNNFYPREAKVQWKVDNALQSGNSQESVTEQDSKDSTYSLSSTLTLSKADYEKHKVYACEVTHQGLSSPVTKSFNRGECGGSDYKDDDDK
notes: as for B2
Regarding B6, the binding result in assay [4] and in assay [5] was “binds” each time.
